Source: patent publication US20160347834A1 (ZENOAQ RESOURCE, published 2016)
Blank lines part the entries; values can stand above or below the binder they belong to.

How the values were obtained:
[1] = biological target: T1, human podoplanin on glioblastoma cells LN319 (human, UniProt Q86YL7 23-162); assay: flow cytometry on LN319 cells, culture supernatant
T1 construct: Podoplanin of the LN319 cell line itself; also called LN 319 cells; podoplanin expression strain
T1 chain: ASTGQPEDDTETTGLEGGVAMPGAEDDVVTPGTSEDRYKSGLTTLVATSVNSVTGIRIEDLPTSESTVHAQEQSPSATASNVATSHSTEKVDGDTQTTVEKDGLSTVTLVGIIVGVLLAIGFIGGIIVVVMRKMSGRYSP

[2] = biological target: T2, human podoplanin on testicular tumor cells (paraffin section) (human, UniProt Q86YL7 23-162); assay: immunohistostaining of a testicular tumor paraffin section (FIG. 4B)
T2 construct: also called tumor portion of testicular tumor
T2 chain: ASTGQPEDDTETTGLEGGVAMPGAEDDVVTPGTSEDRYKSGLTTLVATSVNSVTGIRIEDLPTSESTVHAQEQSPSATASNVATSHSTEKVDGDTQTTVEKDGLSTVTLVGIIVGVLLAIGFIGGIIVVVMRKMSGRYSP
Protocol: (§1) Various paraffin sections were deparaffined in xylene and ethanol solutions. The resulting sections were autoclaved for 20 minutes using an antigen activator reagent (citrate buffer (pH 6.0): product of Dako). Endogenous peroxidase was inactivated with 3% H₂O₂. After blocking at room temperature for 10 minutes with SuperBlock (product of Thermo Fisher), a primary antibody was reacted at room temperature for one hour. After amplification using a LSAB kit (product of Dako), color was developed using DAB (product of Dako).
(§2) LpMab-2 is a tumor-specific antibody. […] LpMab-7 reacted with both (FIG. 4B), which coincided with the data of flow cytometry. LpMab-2 reacted with neither normal alveolar epithelial cells nor lymphatic cells (FIG. 4C). The LpMab-7 on the other hand stained alveolar epithelial cells and lymphatic vessel (FIG. 4D).

[3] = biological target: T3, human podoplanin on malignant mesothelioma cells Y-MESO14-hPDPN (human, UniProt Q86YL7 23-162); assay: flow cytometry on Y-MESO14-hPDPN cells, antibody 1 µg/ml
T3 construct: Podoplanin gene expression strain
T3 chain: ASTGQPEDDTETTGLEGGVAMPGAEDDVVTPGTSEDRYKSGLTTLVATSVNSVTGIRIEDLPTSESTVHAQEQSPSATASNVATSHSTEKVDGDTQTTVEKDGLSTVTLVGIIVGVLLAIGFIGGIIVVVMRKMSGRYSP
Protocol: (§3) Reactivity of the anti-podoplanin antibodies (LpMab-2, LpMab-3, LpMab-7, and LpMab-9) with a podoplanin expression strain was studied by flow cytometry. […] The reaction products were each reacted further with an anti-mouse IgG-FITC antibody (product of Life Technologies) at 4° C. for 30 minutes. As a negative control, only the secondary antibody of each of them was used. Fluorescence intensity was measured using EC800 (product of Sony).

[4] = biological target: T4, human podoplanin on renal epithelial cells HEK-293T (human, UniProt Q86YL7 23-162); assay: flow cytometry on HEK-293T cells, antibody 1 µg/ml
T4 construct: Podoplanin of the cell line itself; also called normal renal epithelial cells
T4 chain: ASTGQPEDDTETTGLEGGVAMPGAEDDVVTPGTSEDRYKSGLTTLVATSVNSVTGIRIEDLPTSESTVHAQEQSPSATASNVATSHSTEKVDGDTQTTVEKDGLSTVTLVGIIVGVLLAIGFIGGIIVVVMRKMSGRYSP
Protocol: as §3

[5] = biological target: T5, human podoplanin on mesothelial cells Met-5A (human, UniProt Q86YL7 23-162); assay: flow cytometry on Met-5A cells, antibody 1 µg/ml
T5 construct: Podoplanin of the cell line itself; also called normal mesothelial cells; normal epithelial cell line (Met-5A)
T5 chain: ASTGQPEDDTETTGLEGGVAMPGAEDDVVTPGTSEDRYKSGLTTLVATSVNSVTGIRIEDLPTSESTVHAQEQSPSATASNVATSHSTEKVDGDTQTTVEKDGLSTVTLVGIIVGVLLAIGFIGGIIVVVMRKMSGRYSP
Protocol: as §3

[6] = biological target: T6, human podoplanin on oral cancer cells HSC3/hPDPN (human, UniProt Q86YL7 23-162); assay: flow cytometry on HSC3/hPDPN cells, antibody 1 µg/ml
T6 construct: Podoplanin gene expression strain; also called oral cancer cell line
T6 chain: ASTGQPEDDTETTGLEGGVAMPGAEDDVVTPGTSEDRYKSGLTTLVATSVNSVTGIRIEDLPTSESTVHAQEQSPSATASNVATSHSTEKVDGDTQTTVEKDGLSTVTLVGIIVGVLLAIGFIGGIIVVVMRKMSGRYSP
Protocol: as §3

[7] = biological target: T7, human podoplanin on normal alveolar epithelial cells (paraffin section) (human, UniProt Q86YL7 23-162); assay: immunohistostaining of a normal lung paraffin section (FIG. 4D)
T7 construct: also called normal lung
T7 chain: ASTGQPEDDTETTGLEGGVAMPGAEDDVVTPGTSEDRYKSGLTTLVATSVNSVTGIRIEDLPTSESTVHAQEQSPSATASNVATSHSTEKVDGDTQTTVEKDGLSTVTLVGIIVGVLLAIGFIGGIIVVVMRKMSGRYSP
Protocol: as §1, §2

[8] = biological target: T1, human podoplanin on glioblastoma cells …; assay: flow cytometry on LN319 cells, antibody 1 µg/ml
Protocol: as §3

[9] = biological target: T8, human podoplanin on lung squamous cell cancer cells RERF-LC-AI-hPDPN (human, UniProt Q86YL7 23-162); assay: flow cytometry on RERF-LC-AI-hPDPN cells, antibody 1 µg/ml
T8 construct: Podoplanin gene expression strain
T8 chain: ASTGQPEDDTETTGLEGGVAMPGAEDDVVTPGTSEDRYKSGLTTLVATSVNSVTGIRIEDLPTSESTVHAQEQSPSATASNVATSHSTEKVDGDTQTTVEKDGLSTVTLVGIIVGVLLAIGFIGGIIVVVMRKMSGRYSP
Protocol: as §3

[10] = biological target: T9, human podoplanin on esophageal squamous cell cancer tissue (paraffin section) (human, UniProt Q86YL7 23-162); assay: immunohistostaining of paraffin sections (FIG. 8)
T9 construct: also called esophagus squamous cell cancer
T9 chain: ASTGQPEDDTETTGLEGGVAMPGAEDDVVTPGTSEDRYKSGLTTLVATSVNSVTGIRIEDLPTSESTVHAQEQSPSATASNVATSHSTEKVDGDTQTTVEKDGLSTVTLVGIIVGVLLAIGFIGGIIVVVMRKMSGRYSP
Protocol: (§4) Various paraffin sections were deparaffined in xylene and ethanol solutions. Antigen activation operation was not performed. The endogenous peroxidase was inactivated with 3% H₂O₂. Blocking was performed at room temperature for 10 minutes with SuperBlock (product of Thermo Fisher) and the primary antibody was reacted at room temperature for one hour. After amplification using a LSAB kit (product of Dako), color was developed using DAB (product of Dako).
(§5) LpMab-23 is a cancer cell-specific antibody. […] LpMab-7 used as a positive control reacted with both cancer cells and lymphatic epithelial cells.

[11] = biological target: T10, human podoplanin on lung squamous cell cancer tissue (paraffin section) (human, UniProt Q86YL7 23-162); assay: immunohistostaining of paraffin sections (FIG. 8)
T10 chain: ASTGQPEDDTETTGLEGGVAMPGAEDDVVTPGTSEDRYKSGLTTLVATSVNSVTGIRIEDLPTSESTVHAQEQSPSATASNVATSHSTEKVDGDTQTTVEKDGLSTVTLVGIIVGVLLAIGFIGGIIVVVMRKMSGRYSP
Protocol: as §4, §5

[12] = biological target: T11, human podoplanin on glioblastoma tissue (paraffin section) (human, UniProt Q86YL7 23-162); assay: immunohistostaining of paraffin sections (FIG. 8)
T11 chain: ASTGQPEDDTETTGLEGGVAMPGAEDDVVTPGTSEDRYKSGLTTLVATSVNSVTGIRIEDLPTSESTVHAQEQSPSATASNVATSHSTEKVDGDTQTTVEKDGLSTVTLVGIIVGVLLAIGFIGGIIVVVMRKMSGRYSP
Protocol: as §4, §5

[13] = biological target: T12, human podoplanin on seminoma tissue (paraffin section) (human, UniProt Q86YL7 23-162); assay: immunohistostaining of paraffin sections (FIG. 8)
T12 chain: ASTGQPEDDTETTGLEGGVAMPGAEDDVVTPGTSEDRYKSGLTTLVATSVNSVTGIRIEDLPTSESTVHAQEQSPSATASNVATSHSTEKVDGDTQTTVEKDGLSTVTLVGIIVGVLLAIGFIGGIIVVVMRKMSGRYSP
Protocol: as §4, §5

[14] = biological target: T13, synthetic peptide of human podoplanin from position 69 to position 88 (human); assay: ELISA on synthetic peptides
T13 peptide: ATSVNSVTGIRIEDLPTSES

[15] = biological target: T14, human podoplanin on lymphatic endothelial cells (human, UniProt Q86YL7 23-162); assay: flow cytometry on lymphatic endothelial cells, antibody 1 µg/ml
T14 construct: Normal cells; cultured cells in flow cytometry, cells in paraffin sections in immunohistostaining (see assay of each row); also called lymphatic epithelial cells; lymphatic cells
T14 chain: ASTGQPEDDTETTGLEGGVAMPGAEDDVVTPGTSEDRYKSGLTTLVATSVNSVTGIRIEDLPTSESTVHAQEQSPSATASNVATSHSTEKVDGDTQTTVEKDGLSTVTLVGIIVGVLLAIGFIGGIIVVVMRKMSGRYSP
Protocol: as §3

B1: chLpMab-23 (antibody, human IgG1, kappa, V domains shown)
VH: QVQLKESGPGLVAPSQSLSITCTVSGFSVTSYGIHWVRQPPGKGLEWLGVIWTSGNTNYNSALMSRLSISRDNSKSQVFLKMNSLQTDDTAMYYCAREDYYGYAMDYWGQGTSVTVSS
VL: not shown
notes: Variable regions of LpMab-23 with human IgG1 constant region; Culture supernatant used; also called human chimeric LpMab-23 antibody
- binding result [1]: binds

B2: chLpMab-3 (antibody, human IgG1, kappa, V domains shown)
VH: EVQLVESGGGLVKPGGSLKLSCAASGFTFTRYAMSWVRQTPEKRLEWVATISNGGSYTYYLDSVKGRFTLSRDNAKNTLYLQMSSLRSEDTAMYYCARREGGQAGPAWFVYWGQGTLVTVSA
VL: DIVMTQSPSSLAMSVGQKVTMNCKSSQSLLNSSNQKNYLAWYQQKPGQSPKLLVYFASTRESGVPDRFIGSGSGTDFTLTISSAQAEDLADYFCQQYYSTPPTFGAGTKLELKR
notes: culture supernatant used; also called human chimeric LpMab-3
- binding result [1]: binds

Results, then the binder that gave them:

- binding result [2]: binds
- binding result [3]: binds
- binding result [4]: binds
- binding result [5]: binds
- binding result [6]: binds
- binding result [7]: binds
- binding result [8]: binds
- binding result [9]: binds
- binding result [10]: binds
- binding result [11]: binds
- binding result [12]: binds
- binding result [13]: binds
- binding result [14]: binds
- binding result [15]: binds
B3: LpMab-7 (antibody)
heavy: DVQLVESGGGLVQPGGSRKLSCAASGFTFSGFGMHWVRQAPEKGLEWVAYISSVSSRIYYADTVKGRFTISRDNPKNTLFLQMTSLRSEDTAMYYCAREQTGPAWFAYWGQGTLVTVSAAKTTPPSVYPLAPGSAAQTNSMVTLGCLVKGYFPEPVTVTWNSGSLSSGVHTFPAVLQSDLYTLSSSVTVPSSTWPSETVTCNVAHPASSTKVDKKIVPRDCGCKPCICTVPEVSSVFIFPPKPKDVLTITLTPKVTCVVVDISKDDPEVQFSWFVDDVEVHTAQTQPREEQFNSTFRSVSELPIMHQDWLNGKEFKCRVNSAAFPAPIEKTISKTKGRPKAPQVYTIPPPKEQMAKDKVSLTCMITDFFPEDITVEWQWNGQPAENYKNTQPIMDTDGSYFVYSKLNVQKSNWEAGNTFTCSVLHEGLHNHHTEKSLSHSPGK
light: DVLMTQTPLSLPVSLGDQASISCRSSRNIVQSTGNTYLEWYLQKPGQSPKLLIFKVSNRFSGVPDRFSGSGSGTDFTLKISRVEAEDLGVYYCFQGSHVPPWTFGGGTKLEIKRADAAPTVSIFPPSSEQLTSGGASVVCFLNNFYPKDINVKWKIDGSERQNGVLNSWTDQDSKDSTYSMSSTLTLTKDEYERHNSYTCEATHKTSTSPIVKSFNRNEC
notes: Mouse IgG1, kappa, from hybridoma; Entries may hold the signal peptide

- binding result [1]: binds
B4: rLpMab-7 (antibody, mouse IgG1, kappa)
heavy: DVQLVESGGGLVQPGGSRKLSCAASGFTFSGFGMHWVRQAPEKGLEWVAYISSVSSRIYYADTVKGRFTISRDNPKNTLFLQMTSLRSEDTAMYYCAREQTGPAWFAYWGQGTLVTVSAAKTTPPSVYPLAPGSAAQTNSMVTLGCLVKGYFPEPVTVTWNSGSLSSGVHTFPAVLQSDLYTLSSSVTVPSSTWPSETVTCNVAHPASSTKVDKKIVPRDCGCKPCICTVPEVSSVFIFPPKPKDVLTITLTPKVTCVVVDISKDDPEVQFSWFVDDVEVHTAQTQPREEQFNSTFRSVSELPIMHQDWLNGKEFKCRVNSAAFPAPIEKTISKTKGRPKAPQVYTIPPPKEQMAKDKVSLTCMITDFFPEDITVEWQWNGQPAENYKNTQPIMDTDGSYFVYSKLNVQKSNWEAGNTFTCSVLHEGLHNHHTEKSLSHSPGK
light: DVLMTQTPLSLPVSLGDQASISCRSSRNIVQSTGNTYLEWYLQKPGQSPKLLIFKVSNRFSGVPDRFSGSGSGTDFTLKISRVEAEDLGVYYCFQGSHVPPWTFGGGTKLEIKRADAAPTVSIFPPSSEQLTSGGASVVCFLNNFYPKDINVKWKIDGSERQNGVLNSWTDQDSKDSTYSMSSTLTLTKDEYERHNSYTCEATHKTSTSPIVKSFNRNEC
notes: Full-length H and L chain of LpMab-7 expressed in CHO cells; also called recombinant LpMab-7

- binding result [1]: binds
B5: chLpMab-7 (antibody, human IgG1, kappa)
heavy: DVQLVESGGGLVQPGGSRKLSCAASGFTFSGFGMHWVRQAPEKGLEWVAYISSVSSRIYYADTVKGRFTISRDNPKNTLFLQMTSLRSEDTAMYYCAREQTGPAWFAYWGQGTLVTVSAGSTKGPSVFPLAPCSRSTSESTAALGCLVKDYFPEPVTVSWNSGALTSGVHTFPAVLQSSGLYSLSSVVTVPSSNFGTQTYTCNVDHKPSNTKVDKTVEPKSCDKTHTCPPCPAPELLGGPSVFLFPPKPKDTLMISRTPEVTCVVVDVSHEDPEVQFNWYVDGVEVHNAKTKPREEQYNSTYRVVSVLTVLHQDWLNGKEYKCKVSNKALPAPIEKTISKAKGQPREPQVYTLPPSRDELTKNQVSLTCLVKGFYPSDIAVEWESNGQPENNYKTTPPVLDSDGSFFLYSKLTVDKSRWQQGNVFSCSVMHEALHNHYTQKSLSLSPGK
light: DVLMTQTPLSLPVSLGDQASISCRSSRNIVQSTGNTYLEWYLQKPGQSPKLLIFKVSNRFSGVPDRFSGSGSGTDFTLKISRVEAEDLGVYYCFQGSHVPPWTFGGGTKLEIKRADAAPTVSIFPPSSEQLTSGGASVVCFLNNFYPKDINVKWKIDGSERQNGVLNSWTDQDSKDSTYSMSSTLTLTKDEYERHNSYTCEATHKTSTSPIVKSFNRNEC
notes: culture supernatant used; also called human chimeric LpMab-7
